In PMC6736767:
Where two headings read alike, the source gives them in different places.

B1: sodA2 (ssRNA)
RNA: UCAUGGCAAAAGUUAAAACAGGAGGUUUUUAUGUUUAAGCUGCCAGAACUUGGUUAUGAU
B2: bpuR RNA (ssRNA)
RNA: ACGUUAAAUGUAGUCAAGUACAAAAACUUGUGUGGAGGAAAUUGAUGGGAGAGAGAGGGGAAGUAUACU
B3: sodA1 (ssRNA)
RNA: AAUGAGCCUUGUUAUUGUGGAAGUGGGAAGAAAUAUAAAAAUUGUCAUGGCAAAAGUUA

How the values were obtained:
BpuR [1] = biological target: T1, BpuR (Borrelia burgdorferi, UniProt O51076 1-122); assay: EMSA
T1 sequence: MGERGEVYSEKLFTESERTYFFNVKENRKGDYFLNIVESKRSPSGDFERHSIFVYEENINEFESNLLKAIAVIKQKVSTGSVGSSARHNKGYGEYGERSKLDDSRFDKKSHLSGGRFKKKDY

BpuR [2] = biological target: T1, BpuR; assay: EMSA; remark: listed apart in the source

| Binder | binding result (BpuR [1]) | binding result (BpuR [2]) |
| --- | --- | --- |
| B1 | no binding | – |
| B2 | – | binds |
| B3 | – | binds |
